From patent US20170274062A1 (OURO FINO SAUDE ANIMAL LTDA, published 2017)

B1: Exomyc polyprotein 2, Rrp41-P46-P97R1R2 (other)
chain: MAEKPEGLKLIDENGRRIDGRKKYELRPIKMEVGVLKNANGSAYIEWGKNKIIAAVYGPRELHPKHLQRPDRAILRVRYNMAPFSVEETKSPGPDRRSIEISKVIKGALEPALILEMFPRTAIDVFIEVLQADAGTRVAGITAASLALADAGIPMRDLVAACAAGKIEGEIVLDLNKEEDNYGEADVPVAIMPLKNDITLLQMDGYLTKDEFIEAVKLAIKGAKAVYQKQREALKEKYLKIAQEVEGSPKHKVSNDSIRIALTDPDNPRWISAQKDIISYVDETEAATSTITKNQDAQNNWLTQQANLSPAPKGFIIAPENGSGVGTAVNTIADKGIPIVAYDRLITGSDKYDWYVSFDNEKVGELQGLSLAAGLLGKEDGAFDSIDQMNEYLKSHMPQETISFYTIAGSQDDNNSQYFYNGAMKVLKELMKNSQNKIIDLSPEGENAVYVPGWNYGTAGQRIQSFLTINKDPAGGNKIKAVGSKPASIFKGFLAPNDGMAEQAITKLKLEGFDTQKIFVTGQDYNDKAKTFIKDGDQNMTIYKPDKVLGKVAVEVLRVLIAKKNKASRSEVENELKAKLPNISFKYDNQTYKVQGKNINTILVSPVIVTKANVDNPGAAKPEAAKPVAAKPETTKPVAAKPEAAKPEAAKPVAAKPEAAKPVAAKPEAAKPVAAKPEAAKPVAAKPEAAKPVATNTGFSLTNKPKEDYFPMTEGSSNQGKKSEGTPNQGKKAEGAPNQGKKAEGTPNQGKKAEGAPSQQSPTTE
notes: also called Rrp41-P46-97R1R2
B2: Exomyc polyprotein 3, Rrp42-P216A-HSP-NrdF (other)
chain: MGSDNEIVAGIMRDHIINLLKEGKRIDDRGFEDYRPIEIEVGVIEKAEGSALVKLGSTQVLVGIKTSLGEPFPDTPNMGVMTTNVELVPLASPTFEPGPPDERAIELARVIDRGIRESKALNLEKMVIVPGKIVRVVFIDVHVLDHDGNLMDAIGIAAIAALLNARVPKVRYNEETGEVETLDETEPLPVEKIPVPVTFAKIGNILVVDPSLDEELVMDGKITITTDETGHISAVQKSEGGAFKLEEVMYAVETAFKKAEEIRKLILEAVEKAKQLEGQKKAVRKEEELETYNPKDEFNILNPGEISDVLLLDVTPLTLGIETLGGIATPLIPRNTTIPVTKSQIFSTAEDNQTEVTISVVQGERQLAADNKMLGRFNLSGIEAAPRGLPQIEVSFSIDVNGITTVSAKDKKTGKEQTITIKNTSTLSEEEINKMIQEAEENREADALKKDKIETTVRAEGLINQLEKSITDQGEKIDPKQKELLEKQIQELKDLLKEDKTDELKLKLDQIEAAAQSFAQATAQQANTSESDPKADDSNTIDAEIKQDGSGKQDEIKKFTFDLLYKLIELEKDYLYDLYSEVGLAESAIKFSIYNAGKFLQNLGYDSPFSKEETEIEPEIFSQLSARADENHDFFSGNGSSYVMALAEETEDEDWEF
notes: also called Rrp42-HSP-NrdF

Columns and labels:
[1] = target: T1, Exomyc polyprotein 1, Rrp4-P216B-P36-MHP271; assay: co-expression in E. coli, co-retention on 500 kDa MWCO tangential filtration, SDS-PAGE
T1 construct: Expressed in E. coli BL21 (DE3) from pMRK-EXOMYC; also called Rrp4-P36-MHP271

[2] = target: B2; assay: as above

Row | Binder | binding result [1] | binding result [2]
1 | B1 | binds | binds
2 | B2 | binds | 
